Consider six molecules from PMC4103454, “FAN1 Activity on Asymmetric Repair Intermediates Is Mediated by an Atypical Monomeric Virus-type Replication-Repair Nuclease Domain” (Cell Reports, 2014).

Usually stoichiometry N stands for a count of units in the complex or per binding partner. The Kd is the constant that tells how readily two partners part at equilibrium.

T1: tryptic fragment 515-790 of hFAN1_360 (human, UniProt Q9Y2M0 515-790)
T1 construct: human FAN1, protected tryptic fragment identified by mass spectrometry as amino acids 515-790; The three fragments are said to correspond broadly to the SAP, TPR and VRR-Nuc homology regions; also called amino acids 515–790; source: limited tryptic proteolysis of purified hFAN1_360 (from E. coli)
T1 sequence (looked up): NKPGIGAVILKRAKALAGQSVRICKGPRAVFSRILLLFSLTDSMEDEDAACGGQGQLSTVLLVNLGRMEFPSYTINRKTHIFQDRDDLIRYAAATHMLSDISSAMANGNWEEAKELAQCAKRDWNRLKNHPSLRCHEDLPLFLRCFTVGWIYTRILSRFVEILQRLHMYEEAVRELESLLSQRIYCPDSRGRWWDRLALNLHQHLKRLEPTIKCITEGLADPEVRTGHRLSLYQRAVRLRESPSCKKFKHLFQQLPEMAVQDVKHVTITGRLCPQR

B1: tryptic fragment 795-1,012 of hFAN1_360 (domain or fragment, human, UniProt Q9Y2M0 795-1012, looked up)
chain: SVFVMEAGEAADPTTVLCSVEELALAHYRRSGFDQGIHGEGSTFSTLYGLLLWDIIFMDGIPDVFRNACQAFPLDLCTDSFFTSRRPALEARLQLIHDAPEESLRAWVAATWHEQEGRVASLVSWDRFTSLQQAQDLVSCLGGPVLSGVCRHLAADFRHCRGGLPDLVVWNSQSRHFKLVEVKGPNDRLSHKQMIWLAELQKLGAEVEVCHVVAVGAK
notes: human FAN1, protected tryptic fragment identified by mass spectrometry as amino acids 795-1,012; The three fragments are said to correspond broadly to the SAP, TPR and VRR-Nuc homology regions; also called amino acids 795–1,012; source: limited tryptic proteolysis of purified hFAN1_360 (from E. coli)
B2: psNUC, VRR-Nuc single-domain protein of Psychrobacter (enzyme)
chain: RLKGLTEDEVQTVVMNWSKRQKFKGRPLFDYIHHSPNGGKRAAKIGSSGKRYSPEAAKFKRMGVKAGYPDLIIDIARGAYHGLRIEIKKDGNSYATPAQKERIEMLAKEGYCAVVAKGIDNVISVIQQYIKLGDFDGVSQLTADK
notes: psNUC, standalone VRR-Nuc domain protein of Psychrobacter, UniProt A5WF35; Synthetic gene (GeneART) in pGEX 6P-1; The structure was solved by SAD on a selenomethionine derivative; source: E. coli, purified (glutathione-Sepharose, 3C protease cleavage, Superdex gel filtration)
B3: tryptic fragment 360-507 of hFAN1_360 (domain or fragment, human, UniProt Q9Y2M0 360-507, looked up)
chain: GSSCNGPGQTTGHPYYLRSFLVVLKTVLENEDDMLLFDEQEKGIVTKFYQLSATGQKLYVRLFQRKLSWIKMTKLEYEEIALDLTPVIEELTNAGFLQTESELQELSEVLELLSAPELKSLAKTFHLVNPNGQKQQLVDAFLKLAKQR
notes: human FAN1, protected tryptic fragment identified by mass spectrometry as amino acids 360-507; The three fragments are said to correspond broadly to the SAP, TPR and VRR-Nuc homology regions; also called amino acids 360–507; source: limited tryptic proteolysis of purified hFAN1_360 (from E. coli)

Series [1] has as its target stNUC, VRR-Nuc single-domain protein of Streptococcus equi bacteriophage P9 (Streptococcus equi bacteriophage P9). Nature of the series: AUC; sedimentation velocity, 50,000 rpm, 277 K, 50 mM Tris/HCl pH 8.0, 300 mM NaCl, 0.50 mM TCEP, interference optics, SEDFIT c(s) and c(M).
Series [2] has as its target saNUC, VRR-Nuc single-domain protein of Salmonella enteritidis typing phage 3 (Salmonella enteritidis typing phage 3). The description is as above.
The test system of a further series is stNUC. As to the kind of experiment: EMSA. As to conditions: EMSA: 1 nM radiolabelled DNA, 20 C, 30 min, binding buffer in Supplemental Information (composition and pH not in material); 2.5% Ficoll-400, 8% native PAGE in …. On the technique in general: In EMSA bound probe runs differently from free probe, usually more slowly.
The next series relates to psNUC. Nature of the series: EMSA. As to conditions: stoichiometric binding at 1 nM DNA; 'indicative of a subnanomolar' KD; EMSA: 1 nM radiolabelled DNA, 20 C, 30 min, binding buffer in Supplemental Information (composition and pH not in material); 2.5% Ficoll-400, 8% native PAGE in ….
Series [3] addresses T1, tryptic fragment 515-790 of hFAN1_360. Nature of the series: SEC; S200 gel filtration of a preparative scale tryptic digest of hFAN1_360; SDS-PAGE of fractions across the peak. Conditions: both partners purified. On the technique in general: Size exclusion chromatography separates by hydrodynamic size, large species first.
Series [4] deals with the molecule itself. As to the kind of experiment: AUC; sedimentation velocity as above, psNUC at concentrations above 70 uM; dimer to tetramer.
Series [5] deals with the molecule itself. Nature of the series: AUC; sedimentation velocity, 50,000 rpm, 277 K, 50 mM Tris/HCl pH 8.0, 300 mM NaCl, 0.50 mM TCEP, interference optics, SEDFIT c(s) and c(M).
Series [6] has as its target B1. Nature of the series: SEC; S200 gel filtration of a preparative scale tryptic digest of hFAN1_360; SDS-PAGE of fractions across the peak. As to conditions: both partners purified.

In turn, “stNUC, VRR-Nuc single-domain protein of Streptococcus equi bacteriophage P9 (enzyme)” returned a stoichiometry N in series [1] of 2. As to “saNUC, VRR-Nuc single-domain protein of Salmonella enteritidis typing phage 3 (enzyme)”, the stoichiometry N in series [2] is 2. With four-way DNA junction (HJ), the Kd was 200 nM in the series with stNUC and less than 1 nM in the series with psNUC.

As to B1, in series [3], the binding result is recorded as “binds”. Turning to B2, the “stoichiometry N” value in series [4] was determined as 4; in series [5], 2. Consider B3, for which the binding result in series [3] and in series [6] was “binds” in each case.
